Literature values, collected in patent publication US7266483B2, “System and methods for optimized drug delivery and progression of diseased and normal cells” (Optimata Ltd., priority 2000, dated 2007).

Legend:
post mitotic compartment = conditions: counts made on day 5 after G-CSF administration; noted by Price
[1] = modeled as exponential distribution, held constant
[2] = average model parameter calculated from published data

Molecule: TPO: Thrombopoiesis-controlling cytokine, glycoprotein of about 350 amino acids; term covers its recombinant forms and analogs
- a, TPO-clearing ability of the receptors [2]: 38 pg/ml/hr/receptor molecule
- f, coefficient of non-specific TPO clearance [2]: 0.1 h⁻¹
- relation coefficient of initial maximum TPO blood concentration (xi) to administered intravenous (IV) dose (s) (linear relation, xi=0.0167·si): 0.0167

B1: G-CSF: Granulocyte-Colony Stimulating Factor; generates an increase in blood Neutrophil levels (protein, UniProt P09919 31-207, looked up)
Granulocyte …: TPLGPASSLPQSFLLKCLEQVRKIQGDGAALQEKLVSECATYKLCHPEELVLLGHSLGIPWAPLSSCPSQALQLAGCLSQLHSGLFLYQGLLQALEGISPELGPTLDTLQLDVADFATTIWQQMEELGMAPALQPTQGAMPAFASAFQRRAGGVLVASHLQSFLEVSYRVLRHLAQP
- number of cells in the post mitotic compartment following administration of G-CSF (post mitotic compartment): not significantly changed
- half-life of G-CSF in the blood [1]: 3.5 h
